Assay results: patent publication US20220112295A1 (Novo Nordisk, published 2022)

T1: cyno CD30L LZ (cynomolgus monkey, UniProt A0A7N9CVX7 63-234)
T1 construct: extracellular domain; not shown: N-terminal isoleucine zipper motif
T1 sequence: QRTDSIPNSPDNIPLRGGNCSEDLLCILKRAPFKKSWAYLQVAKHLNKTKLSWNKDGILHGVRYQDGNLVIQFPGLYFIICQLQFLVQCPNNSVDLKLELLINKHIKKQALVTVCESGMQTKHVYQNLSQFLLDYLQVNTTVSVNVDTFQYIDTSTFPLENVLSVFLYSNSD

T2: recombinant human CD30L isoleucine zipper (huCD30L LZ) (human, UniProt P32971 63-234)
T2 construct: also called huCD38L LZ; CD30L LZ Hu; not shown: N-terminal isoleucine zipper motif (leucine zipper with leucines replaced by isoleucines)
T2 sequence: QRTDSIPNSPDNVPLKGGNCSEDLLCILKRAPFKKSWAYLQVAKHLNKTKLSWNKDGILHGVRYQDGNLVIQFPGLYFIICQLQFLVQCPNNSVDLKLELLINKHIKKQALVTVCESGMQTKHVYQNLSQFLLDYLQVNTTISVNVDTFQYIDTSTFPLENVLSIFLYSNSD

T3: FLAG-hCD30L-EC (N153Q) treated with PNGaseF (human)
T3 construct: also called FLAG-hCD30L-EC + PNGaseF
T3 chain: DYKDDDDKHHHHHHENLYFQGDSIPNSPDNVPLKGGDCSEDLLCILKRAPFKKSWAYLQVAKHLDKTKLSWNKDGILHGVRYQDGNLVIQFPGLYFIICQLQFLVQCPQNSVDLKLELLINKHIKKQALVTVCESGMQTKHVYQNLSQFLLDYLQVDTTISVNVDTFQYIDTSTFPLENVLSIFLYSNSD


What was measured:
cyno CD30L LZ = molecular target: T1, cyno CD30L LZ; test: blocking of cyno CD30L LZ binding to K299 cells (CD30)
Experimental: Anti-CD30L IgG antibodies were titrated into culture diluent (RPMI-1640 medium+10% heat-inactivated fetal bovine serum) and placed into round-bottomed 96-well microtiter plates (Costar® 96 well plate (Corning; Acton, Mass.) to give a range of final concentrations from luglmi to 10 pg/ml. As a positive control, a mouse anti-human CD30L monoclonal antibody was prepared as described in U.S. Pat. No. 5,480,981. The final volume of diluent and CD30L IgG was 100 μl/well. To each well was then added 50 µl of recombinant human CD30L isoleucine zipper ([…]). The huCD30L LZ construct consists of the extracellular domain of human CD30L (see U.S. Pat. No. 5,480,981) linked at its N-terminus to an isoleucine zipper motif modified by replacing the leucine residues with isoleucine residues. The single cell assay was also used to determine cyno cross-reactivity using a cyno CD30L LZ instead of the huCD30L LZ. CynoCD30L LZ was prepared as described for the human LZ molecule.
The plates were incubated for 45 minutes at room temperature. To each well was added 50 μl of K299 cells (4×10⁵ cells/ml). The plates were then incubated for 24 hours at 37° C. 5% CO₂.
The amount of IL-8 in the cell supernatants was determined by sandwich ELISA, using a CDCL8/IL-8 ELISA DuoSet kit according to the manufacturer's instructions (R&D Systems, Minneapolis, Minn.). IL-8 levels were interpolated from the ELISA standard curve using DeltaSoft 3 version 2.2 software (DeltaSoft, Inc. Hillsborough, N.J.). At results were expressed as the mean It standard error of the mean (SEM) for 3 replicate cultures calculated by GraphPad PRISM software v. 4.01 (GraphPad Software Inc., San Diego, Calif.) as were the IC₅₀ values. The IC₅₀ value derived using the huCD30L LZ for Antibody A1 was 2700 pM. The results using the cynoCD30L LZ can be found in Table 5.

[1] = molecular target: T2, recombinant human CD30L isoleucine …; test: blocking of human CD30L LZ binding to K299 cells (CD30)
[2] = molecular target: T3, FLAG-hCD30L-EC (N153Q) treated with …; test: HX-MS, 6 uM hCD30L with 6.6 uM mAb

| Binder | IC50 (cyno CD30L LZ) [nM] | IC50 [1] [nM] | binding result [2] |
| --- | --- | --- | --- |
| Antibody A (antibody, V domains shown, Human antibody (XenoMouse); also called mAb A; anti-hCD30L A) VH: QVQLQESGPGLVKPSETLSLTCTVSGGSISSYIWSWIRQPAGKGLEWIGRIYASGNTNYNPSLKSRVTMSVDTSKNQFSLKLSSMTAADTAVYYCARDYRVAGTYYYYYGLDVWGQGTTVTVSS VL: QSALTQPASVSGSPGQSITISCTGTSSDVGVYDYVSWYQQHPGKAPKLMIYEVSNRPSGVSNRFSGSKSGNTASLTISGLQTEDEADYYCSSYTSRSTWVFGGGTKLTVL | 1.4 | 1.5 |  |
| Antibody B (antibody, V domains shown, also called mAb B) VH: QVQLQESGPGLVKPSETLSLTCTVSGGSISSYYWTWIRQPAGKGLEWIGRIYTSGITNYNPSLKSRVTMSVDTSKNQFSLKLSSVTAADTAVYYCARERVVGASRYYYYGVDVWGQGTTVTVSS VL: QSALTQPASVSGSPGQSITISCTGTSSDVGLYNYVSWYQQHPDKAPKLMIFEVNNRPSGVSNRFSGSNSGNTASLTISGLQAEDEADYYCSSYTSSSTWVFGGGTKLTVL |  | 2.5 |  |
| Antibody F (antibody, V domains shown, also called mAb F) VH: QVQLQESGPGLVKPSETLSLTCTVSGGSISSYYWSWIRQPAGKGLEWIGRIFASGSTNYNPSLRSRVTMSRDTSKNQFSLKLSSVTAADTAVYYCAKERVGVQDYYHYSGMDVWGQGTTVTVSS VL: QSALTQPASVSGSPGQSITISCTGTSSDVGLYNYVSWYQQQPGKAPKLMIYEVSKRPSGVSNRFSGSTSGNTASLTISGLQADDEADYSCSSYTSSSTWVFGGGTKLTVL | 0.45 | 2 | binds |
| Antibody D (antibody, V domains shown, also called mAb D) VH: QVQLQESGPGLVKPSETLSLTCTVSGGSISSYSWSWIRQPAGKGLEWIGRTSTSGRNNYNPSLKSRVTMSVDTSKNQFSLKLNSVTAADTAVYYCARDFTIAARRYYYYGMDVWGQGTTVTVSS VL: QSALTQPASVSGSPGQSITISCTGTSSDIGLYNYVSWYQQHPGKAPKLIIYEVINRPSGVSNRFSGSESGNTASLTISGLQAEDEANYYCSSYTSSSTWVFGGGTKLTVL |  |  | binds |
| Antibody C (antibody, V domains shown, also called mAb C) VH: QVQLQESGPGLVKPSETLSLTCTVSGGSISSYYWTWIRQPAGKGLEWIGRIYTSGITNYNPSLKSRVTMSVDTSKNQFSLKLSSVTAADTAVYYCARERVVGASRYYYYGVDVWGQGTTVTVSS VL: QSALTQPASVSGSPGQSITISCTGTSSDIGLYDYVSWYQQHPDRAPKLIIFEVNNRPSGVSYRFSGSNSGNTASLTISGLQAEDEADYYCSSYTSSSTWVFGGGTKLTVL |  | 1.9 |  |
| Antibody E (antibody, V domains shown, also called mAb E) VH: QVQLQESGPRLVKPSETLSLTCTVSGGSITNNYWSWIRQPAGKGLEWIGRVYSSGLTNYKPSLKSRVTMSVDTSKNQFSLRLNSVTAADTAVYYCARERATVTTRYHYDGMDVWGQGTSVTVSS VL: QSALTQPASVSGSPGQSITISCTGSSSDIGTYNYVSWYQQYPGKAPELMIYEVNNRPSGVSDRFSGSTSGNTASLTISGLQANDEADYYCSSYSSSSTWVFGGGTKLTVL | 1.3 | 2.1 | binds |
